From patent USRE49477 (THOMAS JEFFERSON UNIVERSITY, dated 2023)
Blank lines part the entries; values can stand above or below the binder they belong to.

Legend:
[1] = target: T1, human procollagen I α2 chain (human, UniProt P08123 23-1366); experiment: Western blot, procollagen I chains on membrane, anti-human γ-HRP detection
T1 construct: The separated chain as it stood on the Western blot membrane; With the chimeric IgG, a partially degraded form was also positive; also called Pro-α2; collagen α2-chain

[2] = target: T1, human procollagen I α2 chain; experiment: Western blot, procollagen I chains on membrane, anti-FLAG-HRP detection
[3] = target: T1, human procollagen I α2 chain; experiment: Western blot, procollagen I chains on membrane, anti-His-HRP detection

T1 sequence (P08123 23-1366 limits assumed): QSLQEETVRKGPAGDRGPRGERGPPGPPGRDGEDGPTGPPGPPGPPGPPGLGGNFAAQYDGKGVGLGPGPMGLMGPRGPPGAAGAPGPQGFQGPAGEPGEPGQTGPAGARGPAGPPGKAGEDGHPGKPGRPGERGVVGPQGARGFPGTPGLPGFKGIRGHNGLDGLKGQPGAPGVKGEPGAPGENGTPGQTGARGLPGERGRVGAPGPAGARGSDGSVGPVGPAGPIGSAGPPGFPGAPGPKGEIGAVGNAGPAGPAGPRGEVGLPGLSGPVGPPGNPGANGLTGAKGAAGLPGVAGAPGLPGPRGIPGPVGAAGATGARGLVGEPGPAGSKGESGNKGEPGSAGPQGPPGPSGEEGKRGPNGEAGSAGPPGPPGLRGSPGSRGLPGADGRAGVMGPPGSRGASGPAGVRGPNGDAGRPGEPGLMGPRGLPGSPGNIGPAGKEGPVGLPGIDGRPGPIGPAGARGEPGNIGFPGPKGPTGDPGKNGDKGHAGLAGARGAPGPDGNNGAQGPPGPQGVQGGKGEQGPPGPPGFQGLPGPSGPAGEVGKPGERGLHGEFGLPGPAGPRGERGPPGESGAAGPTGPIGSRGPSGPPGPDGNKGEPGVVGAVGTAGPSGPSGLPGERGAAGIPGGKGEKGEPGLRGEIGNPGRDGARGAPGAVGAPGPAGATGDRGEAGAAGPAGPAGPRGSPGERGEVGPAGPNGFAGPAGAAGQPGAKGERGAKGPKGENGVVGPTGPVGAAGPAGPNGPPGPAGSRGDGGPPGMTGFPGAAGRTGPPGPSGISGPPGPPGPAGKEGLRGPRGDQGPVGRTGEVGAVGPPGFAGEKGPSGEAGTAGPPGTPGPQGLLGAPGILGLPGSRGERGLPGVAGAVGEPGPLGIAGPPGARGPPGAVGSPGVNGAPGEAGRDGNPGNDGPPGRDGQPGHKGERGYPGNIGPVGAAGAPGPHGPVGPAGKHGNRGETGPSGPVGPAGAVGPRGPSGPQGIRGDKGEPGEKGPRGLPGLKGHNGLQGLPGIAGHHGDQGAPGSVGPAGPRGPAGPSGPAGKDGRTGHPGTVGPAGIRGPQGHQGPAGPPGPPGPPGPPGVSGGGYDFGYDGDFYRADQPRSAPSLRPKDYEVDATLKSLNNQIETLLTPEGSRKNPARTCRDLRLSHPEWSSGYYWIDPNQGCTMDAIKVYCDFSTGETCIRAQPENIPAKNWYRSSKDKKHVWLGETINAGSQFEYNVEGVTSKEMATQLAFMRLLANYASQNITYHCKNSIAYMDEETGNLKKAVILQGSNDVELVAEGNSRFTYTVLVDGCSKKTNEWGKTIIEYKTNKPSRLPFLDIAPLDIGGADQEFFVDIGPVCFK

binding result [1]: binds
B1: mouse-human chimeric IgG consisting of the mVH-hγ and mVL-hκ chains (antibody, V domains shown)
VH: QIQLVQSGPELKKPGETVKISCKASGYTFTDYPLHWVKQAPGKGLQWMAWINTETGEPTYADDFTGRFAFSLETSASTAYLQINNLKNEDTATYFCVRGYYYYWGQGTTLSVSS
VL: DIVMSQSPSSLAVSAGEKVTMSCKSSQSLLNSRTRKNNLAWYQQKPGQSPKLLIYWASTRESGVPDRFTGSGSGTDFTLTISSVQAEDLAVYYCKQSYNLWTFGGGTKLEIKR
notes: The constant regions are human IgG1 γ (pFUSE-CHIg-hG1) and human κ (pFUSE2-CLIg-hk); The antibody was expressed in CHO cells and purified on Protein-L; also called chimeric antibody; CHO-IgG

binding result [2]: binds
B2: bacterial-derived scFv variant (anti-α2Ct single chain antibody, FLAG-tagged) (scFv)
scFv: MDIVMSQSPSSLAVSAGEKVTMSCKSSQSLLNSRTRKNNLAWYQQKPGQSPKLLIYWASTRESGVPDRFTGSGSGTDFTLTISSVQAEDLAVYYCKQSYNLWTFGGGTKLEIKVDGGGGSGGGGSGGGGSLEQIQLVQSGPELKKPGETVKISCKASGYTFTDYPLHWVKQAPGKGLQWMAWINTETGEPTYADDFTGRFAFSLETSASTAYLQINNLKNEDTATYFCVRGYYYYWGQGTTLSVSSDYKDDDDK

binding result [3]: binds
B3: His-tagged yeast-derived A_L_K scFv variant (scFv)
scFv: QIQLVQSGPELKKPGETVKISCKASGYTFTDYPLHWVKQAPGKGLQWMAWINTETGEPTYADDFTGRFAFSLETSASTAYLQINNLKNEDTATYFCVRGYYYYWGQGTTLSVSSGGGGSGGGGSGGGGSGGGGSGGGGSGGGGSDIVMSQSPSSLAVSAGEKVTMSCKSSQSLLNSRTRKNNLAWYQQKPGQSPKLLIYWASTRESGVPDRFTGSGSGTDFTLTISSVQAEDLAVYYCKQSYNLWTFGGGTKLEIKRHHHHHH
notes: It was secreted from yeast using pPIC-9K; also called yeast scFv variant
